Measured values reported in PMC8056383, “Entropic Inhibition: How the Activity of a AAA+ Machine Is Modulated by Its Substrate-Binding Domain” (ACS Chemical Biology, 2021).

B1: Thermus thermophilus ClpB, full-length (natural protein)
chain: not shown
notes: ClpB, Thermus thermophilus, full-length protein (NTD, NBD1, MD, NBD2); also called TT ClpB; TT; ClpB; source: cloned into a pET28b vector, expressed and purified (protocol in the Supplementary Methods)
B2: ΔNClpB, Thermus thermophilus ClpB lacking the N-terminal domain (domain or fragment)
chain: not shown
notes: ClpB, Thermus thermophilus, variant beginning at residue 141 (Val); lacks the first 140 residues; In the smFRET experiments one S288C-S631C protomer labelled with AF488/AF594 sat in hexamers of unlabelled ΔNClpB; also called NTD-truncated ClpB; truncated variant; source: cloned into a pET28b vector, expressed and purified (protocol in the Supplementary Methods)
B3: 23C-176C double-cysteine mutant of full-length ClpB, labelled with Alexa Fluor 488 and Alexa Fluor 594 (natural protein)
chain: not shown
modifications: Alexa Fluor 488 and Alexa Fluor 594 (C5 maleimide) on the cysteines at 23 and 176
notes: The ATPase assay used the fully labelled protein. smFRET and FLCS used one labelled protomer in hexamers of WT ClpB; source: cloned into a pET28b vector, expressed and purified (protocol in the Supplementary Methods)

How the values were obtained:
[1] = target: the molecule itself; experiment: native gel or EMSA; native polyacrylamide gel electrophoresis; assembly of ClpB and ΔNClpB (Figure S2)
[2] = target: the molecule itself; experiment: native gel or EMSA; native gel electrophoresis in the presence of 2 mM ATP; assembly of the 23C-176C construct (Figure S1)

Protein	binding result [1]	binding result [2]
B1	binds	
B2	binds	
B3		binds
